Laboratory results: the RNAGym collection of RNA variant scans (doi:10.7554/elife.80360)

B1: Hairpin Ribozyme (parent)
chain: GUCCUCUUUCACGUGCGCGUGAAAGAGAGAAGUGAACCAGAGAAACACACGUUGUGGUAUAUUACCUGGUA

Variants of: B1
Assay: self-cleavage, relative activity (ratio to wild type); higher = more cleavage; co-transcriptional

**Q.** Which self-cleavage does the source give for GUCCUCUUUCACGUGCGCGUGAAAGAGAGAAGUGAACCAGAGAGACACACGUUGUGGUAUAUUACCUGGUC [A44G A71C] here?
**A.** The self-cleavage was 0.143.

**Q.** For GUCCUCUUUCACGUGCGCGUGAAAGAGAGAAGUGAACCAGAGAACCACACGUUGUGGUAUAUUGCCUGGUA [A45C A64G], which self-cleavage is on record?
**A.** Its self-cleavage is 0.259.

**Q.** For GUCCUCUUUCACGUGCGCGUGAAAGAGAGAAGUGAACCAGAGAGACAAACGUUGUGGUAUAUUACCUGGUA [A44G C48A], which self-cleavage is on record?
**A.** Its self-cleavage is 0.102.

**Q.** Which self-cleavage does the source give for GUCCUCUUUCACGUGCGCGUGAAAGAGAGAAGUGAACCAGAGAACCACACGUUGUGUUAUAUUACCUGGUA [A45C G57U] here?
**A.** The self-cleavage was 0.249.

**Q.** For GUCCUCUUUCACGUGCGCGUGAAAGAGAGAAGUGAACCAGAGAUACACACGUUGUGGUAUAUUACCUGGGA [A44U U70G], which self-cleavage is on record?
**A.** Its self-cleavage is 0.201.

**Q.** Which self-cleavage does the source give for GUCCUCUUUCACGUGCGCGUGAAAGAGAGAAGUGAACCAGAGAUACACACGUUGUGGUAUAUUGCCUGGUA [A44U A64G] here?
**A.** Its self-cleavage is 0.202.

**Q.** Which self-cleavage does the source give for GUCCUCUUUCACGUGCGCGUGAAAGAGAGAAGUGAACCAGAGAACCACACGUUGUGGUAUAUUACCUGGUA [A45C] here?
**A.** The self-cleavage was 0.154.

**Q.** For GUCCUCUUUCACGUGCGCGUGAAAGAGAGAAGUGAACCAGAGAACCACACGAUGUGGUAUAUUACCUGGUA [A45C U52A], which self-cleavage is on record?
**A.** The self-cleavage was 0.0823.

**Q.** With GUCCUCUUUCACGUGCGCGUGAAAGAGAGAAGUGAACCAGAGAUACACACGUUGUGGUAUUUUACCUGGUA [A44U A61U] as the variant, how does the self-cleavage read?
**A.** The self-cleavage was 0.124.

**Q.** For GUCCUCUUUCACGUGCGCGUGAAAGAGAGAAGUGAACCAGAGAUACACACGUUGUGGUAUCUUACCUGGUA [A44U A61C], which self-cleavage is on record?
**A.** The self-cleavage was 0.0833.

**Q.** Which self-cleavage does the source give for GUCCUCUUUCACGUGCGCGUGAAAGAGAGAAGUGAACCAGAGAUAAACACGUUGUGGUAUAUUACCUGGUA [A44U C46A] here?
**A.** Its self-cleavage is 0.116.

**Q.** Which self-cleavage does the source give for GUCCUCUUUCACGUGCGCGUGAAAGAGAGAAGUGAACCAGAGAACCACACGUUGUGGAAUAUUACCUGGUA [A45C U58A] here?
**A.** The self-cleavage was 0.309.

**Q.** With GUCCUCUUUCACGUGCGCGUGAAAGAGAGAAGUGAACCAGAGAACCACACGUUGUGGGAUAUUACCUGGUA [A45C U58G] as the variant, how does the self-cleavage read?
**A.** Its self-cleavage is 0.3.

**Q.** Which self-cleavage does the source give for GUCCUCUUUCACGUGCGCGUGAAAGAGAGAAGUGAACCAGAGAACGACACGUUGUGGUAUAUUACCUGGUA [A45C C46G] here?
**A.** The self-cleavage was 0.152.

**Q.** With GUCCUCUUUCACGUGCGCGUGAAAGAGAGAAGUGAACCAGAGAUACACGCGUUGUGGUAUAUUACCUGGUA [A44U A49G] as the variant, how does the self-cleavage read?
**A.** The self-cleavage was 0.0827.

**Q.** With GUCCUCUUUCACGUGCGCGUGAAAGAGAGAAGUGAACCAGAGAUACACUCGUUGUGGUAUAUUACCUGGUA [A44U A49U] as the variant, how does the self-cleavage read?
**A.** Its self-cleavage is 0.109.

**Q.** For GUCCUCUUUCACGUGCGCGUGAAAGAGAGAAGUGAACCAGAGAGACACACGUUGUGGUAUUUUACCUGGUA [A44G A61U], which self-cleavage is on record?
**A.** The self-cleavage was 0.189.

**Q.** With GUCCUCUUUCACGUGCGCGUGAAAGAGAGAAGUGAACCAGAGAGACACACGUUGUGGAAUAUUACCUGGUA [A44G U58A] as the variant, how does the self-cleavage read?
**A.** Its self-cleavage is 0.17.

**Q.** Which self-cleavage does the source give for GUCCUCUUUCACGUGCGCGUGAAAGAGAGAAGUGAACCAGAGAACCACACCUUGUGGUAUAUUACCUGGUA [A45C G51C] here?
**A.** The self-cleavage was 0.0857.

**Q.** For GUCCUCUUUCACGUGCGCGUGAAAGAGAGAAGUGAACCAGAGAUACACACGUUGUGGUAUAUUAACUGGUA [A44U C65A], which self-cleavage is on record?
**A.** The self-cleavage was 0.184.

**Q.** Which self-cleavage does the source give for GUCCUCUUUCACGUGCGCGUGAAAGAGAGAAGUGAACCAGAGAUACACACGUUGUGGUAUAUUAGCUGGUA [A44U C65G] here?
**A.** The self-cleavage was 0.178.

**Q.** With GUCCUCUUUCACGUGCGCGUGAAAGAGAGAAGUGAACCAGAGAUACACACGUGGUGGUAUAUUACCUGGUA [A44U U53G] as the variant, how does the self-cleavage read?
**A.** Its self-cleavage is 0.159.

**Q.** With GUCCUCUUUCACGUGCGCGUGAAAGAGAGAAGUGAACCAGAGAUACACACGUAGUGGUAUAUUACCUGGUA [A44U U53A] as the variant, how does the self-cleavage read?
**A.** The self-cleavage was 0.079.

**Q.** With GUCCUCUUUCACGUGCGCGUGAAAGAGAGAAGUGAACCAGAGAGACACACGUUGUGGUACAUUACCUGGUA [A44G U60C] as the variant, how does the self-cleavage read?
**A.** Its self-cleavage is 0.0999.

**Q.** Which self-cleavage does the source give for GUCCUCUUUCACGUGCGCGUGAAAGAGAGAAGUGAACCAGAGAGACACACGUUGUGGUAGAUUACCUGGUA [A44G U60G] here?
**A.** The self-cleavage was 0.0699.

**Q.** With GUCCUCUUUCACGUGCGCGUGAAAGAGAGAAGUGAACCAGAGAUACACACGUUGUGGUCUAUUACCUGGUA [A44U A59C] as the variant, how does the self-cleavage read?
**A.** The self-cleavage was 0.173.

**Q.** With GUCCUCUUUCACGUGCGCGUGAAAGAGAGAAGUGAACCAGAGAGACACACGUUGUGGUAUAUUACCUUGUA [A44G G68U] as the variant, how does the self-cleavage read?
**A.** Its self-cleavage is 0.173.

**Q.** Which self-cleavage does the source give for GUCCUCUUUCACGUGCGCGUGAAAGAGAGAAGUGAACCAGAGAACCACACGUUGUGGUAUAUUACCUGAUA [A45C G69A] here?
**A.** The self-cleavage was 0.116.

**Q.** With GUCCUCUUUCACGUGCGCGUGAAAGAGAGAAGUGAACCAGAGAGACACACGGUGUGGUAUAUUACCUGGUA [A44G U52G] as the variant, how does the self-cleavage read?
**A.** Its self-cleavage is 0.231.

**Q.** For GUCCUCUUUCACGUGCGCGUGAAAGAGAGAAGUGAACCAGAGAGACACACGUCGUGGUAUAUUACCUGGUA [A44G U53C], which self-cleavage is on record?
**A.** Its self-cleavage is 0.248.

**Q.** Which self-cleavage does the source give for GUCCUCUUUCACGUGCGCGUGAAAGAGAGAAGUGAACCAGAGAACCCCACGUUGUGGUAUAUUACCUGGUA [A45C A47C] here?
**A.** Its self-cleavage is 0.198.

**Q.** With GUCCUCUUUCACGUGCGCGUGAAAGAGAGAAGUGAACCAGAGAACCUCACGUUGUGGUAUAUUACCUGGUA [A45C A47U] as the variant, how does the self-cleavage read?
**A.** The self-cleavage was 0.212.

**Q.** Which self-cleavage does the source give for GUCCUCUUUCACGUGCGCGUGAAAGAGAGAAGUGAACCAGAGAUACACACGCUGUGGUAUAUUACCUGGUA [A44U U52C] here?
**A.** Its self-cleavage is 0.059.

**Q.** For GUCCUCUUUCACGUGCGCGUGAAAGAGAGAAGUGAACCAGAGAACCAUACGUUGUGGUAUAUUACCUGGUA [A45C C48U], which self-cleavage is on record?
**A.** The self-cleavage was 0.145.

**Q.** With GUCCUCUUUCACGUGCGCGUGAAAGAGAGAAGUGAACCAGAGAUACACACGUUUUGGUAUAUUACCUGGUA [A44U G54U] as the variant, how does the self-cleavage read?
**A.** Its self-cleavage is 0.0855.

**Q.** Which self-cleavage does the source give for GUCCUCUUUCACGUGCGCGUGAAAGAGAGAAGUGAACCAGAGAUACACACGUUCUGGUAUAUUACCUGGUA [A44U G54C] here?
**A.** The self-cleavage was 0.0888.

**Q.** With GUCCUCUUUCACGUGCGCGUGAAAGAGAGAAGUGAACCAGAGAACCACAUGUUGUGGUAUAUUACCUGGUA [A45C C50U] as the variant, how does the self-cleavage read?
**A.** Its self-cleavage is 0.0931.

**Q.** With GUCCUCUUUCACGUGCGCGUGAAAGAGAGAAGUGAACCAGAGAUACACACGUUGUGGGAUAUUACCUGGUA [A44U U58G] as the variant, how does the self-cleavage read?
**A.** The self-cleavage was 0.136.
